T1: Rpt5 (S. cerevisiae, UniProt P33297 1-434)
T1 sequence: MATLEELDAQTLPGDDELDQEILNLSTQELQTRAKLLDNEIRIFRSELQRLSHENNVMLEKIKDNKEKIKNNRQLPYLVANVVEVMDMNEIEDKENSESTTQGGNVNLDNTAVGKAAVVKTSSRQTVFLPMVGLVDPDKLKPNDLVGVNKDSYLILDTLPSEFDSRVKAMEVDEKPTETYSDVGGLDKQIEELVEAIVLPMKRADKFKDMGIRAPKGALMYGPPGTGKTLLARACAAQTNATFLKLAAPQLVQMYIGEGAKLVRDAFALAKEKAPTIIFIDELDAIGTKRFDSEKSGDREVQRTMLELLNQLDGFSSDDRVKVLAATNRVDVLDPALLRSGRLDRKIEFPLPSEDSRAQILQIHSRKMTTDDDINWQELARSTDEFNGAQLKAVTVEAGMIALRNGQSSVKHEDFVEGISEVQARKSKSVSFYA

T2: Rpn2 (S. cerevisiae, UniProt P32565 1-945)
T2 sequence: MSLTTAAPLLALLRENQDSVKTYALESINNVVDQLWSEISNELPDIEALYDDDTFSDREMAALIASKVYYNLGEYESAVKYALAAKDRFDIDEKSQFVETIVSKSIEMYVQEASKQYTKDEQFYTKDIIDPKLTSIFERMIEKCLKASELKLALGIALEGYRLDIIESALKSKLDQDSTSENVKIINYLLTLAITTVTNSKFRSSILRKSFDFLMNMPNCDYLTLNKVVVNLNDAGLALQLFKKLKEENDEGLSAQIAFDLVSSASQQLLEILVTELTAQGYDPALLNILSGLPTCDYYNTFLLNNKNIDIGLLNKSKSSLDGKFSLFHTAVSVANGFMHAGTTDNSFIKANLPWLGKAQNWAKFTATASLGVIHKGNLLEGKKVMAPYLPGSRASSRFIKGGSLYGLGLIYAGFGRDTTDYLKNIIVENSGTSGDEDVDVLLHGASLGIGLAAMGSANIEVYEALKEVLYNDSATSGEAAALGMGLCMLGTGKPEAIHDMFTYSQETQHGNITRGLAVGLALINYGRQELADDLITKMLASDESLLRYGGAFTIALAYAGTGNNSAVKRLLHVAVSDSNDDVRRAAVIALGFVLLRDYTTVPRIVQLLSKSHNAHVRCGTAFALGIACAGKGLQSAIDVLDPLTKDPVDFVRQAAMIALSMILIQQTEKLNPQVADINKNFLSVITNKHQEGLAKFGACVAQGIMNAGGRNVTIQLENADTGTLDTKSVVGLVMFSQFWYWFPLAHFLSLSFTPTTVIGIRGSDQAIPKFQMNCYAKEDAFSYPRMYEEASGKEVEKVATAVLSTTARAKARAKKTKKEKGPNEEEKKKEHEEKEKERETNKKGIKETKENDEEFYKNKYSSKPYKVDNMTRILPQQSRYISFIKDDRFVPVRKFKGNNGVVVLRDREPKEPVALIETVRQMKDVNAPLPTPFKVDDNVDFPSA

T3: Rpn7 (S. cerevisiae, UniProt Q06103 1-429)
T3 sequence: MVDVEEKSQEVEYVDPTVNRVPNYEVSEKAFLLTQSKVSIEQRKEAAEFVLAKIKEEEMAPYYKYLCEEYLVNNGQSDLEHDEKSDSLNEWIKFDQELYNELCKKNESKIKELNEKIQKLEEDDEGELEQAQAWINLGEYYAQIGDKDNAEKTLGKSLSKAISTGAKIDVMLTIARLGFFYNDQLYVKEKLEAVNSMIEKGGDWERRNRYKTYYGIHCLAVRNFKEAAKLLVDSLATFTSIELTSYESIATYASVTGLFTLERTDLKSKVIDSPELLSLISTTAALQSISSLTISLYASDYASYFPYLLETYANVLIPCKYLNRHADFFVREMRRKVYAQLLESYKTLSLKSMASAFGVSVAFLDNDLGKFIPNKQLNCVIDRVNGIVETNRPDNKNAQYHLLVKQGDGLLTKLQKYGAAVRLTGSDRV

T4: Rpt3 (S. cerevisiae, UniProt P33298 1-428)
T4 sequence: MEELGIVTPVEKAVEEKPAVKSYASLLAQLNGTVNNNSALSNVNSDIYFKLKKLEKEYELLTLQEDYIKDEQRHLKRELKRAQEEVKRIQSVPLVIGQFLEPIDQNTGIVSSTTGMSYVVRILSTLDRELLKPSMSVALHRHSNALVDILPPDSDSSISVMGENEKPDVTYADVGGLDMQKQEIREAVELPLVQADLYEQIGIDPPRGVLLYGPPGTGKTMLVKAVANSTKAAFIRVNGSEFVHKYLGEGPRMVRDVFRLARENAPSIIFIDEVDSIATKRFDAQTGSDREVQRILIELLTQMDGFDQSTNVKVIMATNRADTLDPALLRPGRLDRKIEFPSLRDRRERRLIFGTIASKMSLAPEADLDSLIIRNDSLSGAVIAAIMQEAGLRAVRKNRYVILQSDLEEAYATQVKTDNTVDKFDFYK

T5: Rpn9 (recombinant lid) (S. cerevisiae, UniProt Q04062 1-393)
T5 sequence: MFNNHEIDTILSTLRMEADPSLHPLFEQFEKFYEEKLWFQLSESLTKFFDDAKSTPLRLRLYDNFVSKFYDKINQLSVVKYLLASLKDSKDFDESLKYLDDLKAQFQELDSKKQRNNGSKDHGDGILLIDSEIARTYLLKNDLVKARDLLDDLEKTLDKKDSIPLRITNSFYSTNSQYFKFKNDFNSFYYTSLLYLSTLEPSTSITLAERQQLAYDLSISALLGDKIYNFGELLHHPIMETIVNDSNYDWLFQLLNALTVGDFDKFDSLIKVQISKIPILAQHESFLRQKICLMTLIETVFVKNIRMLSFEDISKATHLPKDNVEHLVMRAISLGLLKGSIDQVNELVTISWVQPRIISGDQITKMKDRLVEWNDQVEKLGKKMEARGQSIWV

T6: Rpn1 (S. cerevisiae, UniProt P38764 1-993)
T6 sequence: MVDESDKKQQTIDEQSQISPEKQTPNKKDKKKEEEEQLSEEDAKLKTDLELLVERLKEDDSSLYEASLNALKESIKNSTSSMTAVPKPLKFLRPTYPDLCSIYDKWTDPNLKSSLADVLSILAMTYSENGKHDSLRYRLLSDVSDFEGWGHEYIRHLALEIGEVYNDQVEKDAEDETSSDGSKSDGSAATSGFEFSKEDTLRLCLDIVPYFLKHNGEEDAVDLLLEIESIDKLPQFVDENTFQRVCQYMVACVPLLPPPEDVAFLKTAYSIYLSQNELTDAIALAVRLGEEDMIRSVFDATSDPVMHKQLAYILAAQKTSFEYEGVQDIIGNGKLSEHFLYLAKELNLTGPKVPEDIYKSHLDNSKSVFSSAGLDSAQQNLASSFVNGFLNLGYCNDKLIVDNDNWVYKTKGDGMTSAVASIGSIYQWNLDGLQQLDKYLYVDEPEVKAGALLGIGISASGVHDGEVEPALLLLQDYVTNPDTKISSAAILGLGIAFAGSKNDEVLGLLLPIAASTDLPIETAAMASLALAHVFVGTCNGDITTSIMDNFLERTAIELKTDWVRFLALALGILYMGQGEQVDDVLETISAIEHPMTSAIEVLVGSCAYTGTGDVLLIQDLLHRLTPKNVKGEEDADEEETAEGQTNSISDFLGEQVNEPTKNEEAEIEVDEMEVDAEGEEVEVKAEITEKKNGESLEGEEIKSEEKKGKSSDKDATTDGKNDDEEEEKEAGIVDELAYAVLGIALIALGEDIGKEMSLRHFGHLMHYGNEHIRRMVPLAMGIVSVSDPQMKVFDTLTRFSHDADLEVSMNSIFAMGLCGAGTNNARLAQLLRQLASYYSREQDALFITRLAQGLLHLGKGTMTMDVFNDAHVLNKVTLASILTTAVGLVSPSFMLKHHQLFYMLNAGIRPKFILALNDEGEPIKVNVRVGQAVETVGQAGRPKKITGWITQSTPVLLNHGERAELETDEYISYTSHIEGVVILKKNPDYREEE

B1: 20S core subunit α6 (natural protein)
chain: MFRNNYDGDTVTFSPTGRLFQVEYALEAIKQGSVTVGLRSNTHAVLVALKRNADELSSYQKKIIKCDEHMGLSLAGLAPDARVLSNYLRQQCNYSSLVFNRKLAVERAGHLLCDKAQKNTQSYGGRPYGVGLLIIGYDKSGAHLLEFQPSGNVTELYGTAIGARSQGAKTYLERTLDTFIKIDGNPDELIKAGVEAISQSLRDESLTVDNLSIAIVGKDTPFTIYDGEAVAKYI
B2: Rpt6 (natural protein)
chain: MTAAVTSSNIVLETHESGIKPYFEQKIQETELKIRSKTENVRRLEAQRNALNDKVRFIKDELRLLQEPGSYVGEVIKIVSDKKVLVKVQPEGKYIVDVAKDINVKDLKASQRVCLRSDSYMLHKVLENKADPLVSLMMVEKVPDSTYDMVGGLTKQIKEIKEVIELPVKHPELFESLGIAQPKGVILYGPPGTGKTLLARAVAHHTDCKFIRVSGAELVQKYIGEGSRMVRELFVMAREHAPSIIFMDEIDSIGSTRVEGSGGGDSEVQRTMLELLNQLDGFETSKNIKIIMATNRLDILDPALLRPGRIDRKIEFPPPSVAARAEILRIHSRKMNLTRGINLRKVAEKMNGCSGADVKGVCTEAGMYALRERRIHVTQEDFELAVGKVMNKNQETAISVAKLFK
B3: Rpn8 (natural protein)
chain: MSLQHEKVTIAPLVLLSALDHYERTQTKENKRCVGVILGDANSSTIRVTNSFALPFEEDEKNSDVWFLDHNYIENMNEMCKKINAKEKLIGWYHSGPKLRASDLKINELFKKYTQNNPLLLIVDVKQQGVGLPTDAYVAIEQVKDDGTSTEKTFLHLPCTIEAEEAEEIGVEHLLRDVRDQAAGGLSIRLTNQLKSLKGLQSKLKDVVEYLDKVINKELPINHTILGKLQDVFNLLPNLGTPDDDEIDVENHDRINISNNLQKALTVKTNDELMVIYISNLVRSIIAFDDLIENKIQNKKIQEQRVKDKQSKVSDDSESESGDKEATAPLIQRKNKKN
B4: Rpn8 (recombinant lid) (natural protein)
chain: B3 chain
B5: Ubp6 (enzyme)
chain: MSGETFEFNIRHSGKVYPITLSTDATSADLKSKAEELTQVPSARQKYMVKGGLSGEESIKIYPLIKPGSTVMLLGTPDANLISKPAKKNNFIEDLAPEQQVQQFAQLPVGFKNMGNTCYLNATLQALYRVNDLRDMILNYNPSQGVSNSGAQDEEIHKQIVIEMKRCFENLQNKSFKSVLPIVLLNTLRKCYPQFAERDSQGGFYKQQDAEELFTQLFHSMSIVFGDKFSEDFRIQFKTTIKDTANDNDITVKENESDSKLQCHISGTTNFMRNGLLEGLNEKIEKRSDLTGANSIYSVEKKISRLPKFLTVQYVRFFWKRSTNKKSKILRKVVFPFQLDVADMLTPEYAAEKVKVRDELRKVEKEKNEKEREIKRRKFDPSSSENVMTPREQYETQVALNESEKDQWLEEYKKHFPPNLEKGENPSCVYNLIGVITHQGANSESGHYQAFIRDELDENKWYKFNDDKVSVVEKEKIESLAGGGESDSALILMYKGFGL

For one assay, the target named is T1, Rpt5. Put plainly: cryo-EM structure.
For another assay, the target named is T2, Rpn2. Nature of the assay: cryo-EM structure.
The target in a further assay is T3, Rpn7. Nature of the assay: cryo-EM structure.
The assay “Rpt6” concerns the target B2. Nature of the assay: cryo-EM structure.
In the next assay the target is T4, Rpt3. Nature of the assay: cryo-EM structure.
A further assay addresses T5, Rpn9 (recombinant lid). Put plainly: negative-stain electron microscopy, 3D reconstruction.
In another assay the target is T6, Rpn1. Nature of the assay: electron microscopy, variance maps.

Take B1: the binding result in the assay with Rpt5 is “binds”. For B2, the binding result with Rpn2 and with Rpn7 was “binds” each time.

Consider B3, for which the binding result with Rpt6 and in the assay with Rpt3 was “binds” in each case. For the molecule B4, the binding result with Rpn9 (recombinant lid) was “binds”. Consider B5, for which the binding result with Rpn1 was “binds”.

Values taken from paper PMC3285539 (Nature, 2012).
